Reference: paper PMC5985169, “Somatostatin Decorated Quantum Dots for Targeting of Somatostatin Receptors” (Iranian Journal of Pharmaceutical Research : IJPR, 2018)

Assay: HPLC analysis of SST before and after thiolation (elution time related to hydrophilicity)
Type: physicochemical
Settings: chromatographic, C18 reversed-phase analytical column, linear gradient 26% to 39% acetonitrile in water with 0.1% TFA, 1.0 mL/min, detection at 274 nm
Description: Then, thiolated-SST labeled with (1.5 eq) eosin-5-maleimide. Eosin-5-maleimide solution was mixed with thiolated-SST, the reactants were stirred at 600rpm for 30 min. The products were purified by running in Sephadex G-25 mini-column, and identified by thin layer chromatography. HPLC analysis was performed for SST using a linear gradient from 26% to 39% acetonitrile in water, with 0.1% TFA as mobile phase at a flow rate of 1.0 mL/min using a C18-reversed phase analytical column.
The thiolation of SST was investigated using HPLC. […] The single peak eluted at about 19 min corresponded to SST. Thiolated-SST eluted at 18.6 min. The signal consists of multiple neighbouring peaks, these neighbouring peaks appeared between 20.5 and 23 min (Figure 7) and could be related to SST in isomerized form. Neither thiolated-SST nor SST degradation products were detected. Thiolated-SST eluted earlier than SST which is related to the increase in hydrophilicity.
Figure 7 HPLC chromatographs of SST reacted with Traut´s reagent. Signals were detected at 274 nm. Single peak eluted at about 19 min corresponded to SST. Thiolated-SST eluted at 18.6 min.

Substance | HPLC elution time (earlier elution related to increase in hydrophilicity)
Somatostatin acetate [SST] | about 19 min
Thiolated-SST: SST thiolated using Traut's reagent | 18.6 min
